The text below walks through data of patent publication US11111295 (CAFA THERAPEUTICS, dated 2021).

Usually EC50 stands for the concentration that produces a half-maximal response. Low readings indicate an effect from little substance, high ones a need for much substance.

Substitutions are numbered along the chain they refer to. Numbers in names are those of the source. Bounds are passed on as bounds.

The target of assay [1] is T1, human claudin 18A2 (CLD18A2) (human).
T1 construct: also called CLD18.2; CLDN18A2
The experiment in a line: flow cytometry, hybridoma supernatant on HEK293-CLD18A2 against HEK293-CLD18A1. The source says:
(§1) Individual cells were screened for anti-CLD18A2 monoclonal antibody by flow cytometry, and HEK293 cells (HEK-CLD18A2) stably expressing human CLD18A2 were used for primary screening by flow cytometry using a Guava easyCyte™ HT System instrument. The binding of the antibody to human CLD18A1 and CLD18A2 transformants was then compared by flow cytometry. The instrument used was the Guava easyCyte™ HT System.
(§2) After multiple rounds of preparation and screening of hybridomas, the inventors found several antibodies with relatively ideal binding properties.
A general note: In flow cytometry, cells or beads pass a laser one at a time.

Assay [2] addresses T2, human claudin 18A1 (CLD18A1) (human, UniProt P56856 1-261).
T2 construct: also called CLD18.1; claudin 18 splice variant 1
T2 sequence: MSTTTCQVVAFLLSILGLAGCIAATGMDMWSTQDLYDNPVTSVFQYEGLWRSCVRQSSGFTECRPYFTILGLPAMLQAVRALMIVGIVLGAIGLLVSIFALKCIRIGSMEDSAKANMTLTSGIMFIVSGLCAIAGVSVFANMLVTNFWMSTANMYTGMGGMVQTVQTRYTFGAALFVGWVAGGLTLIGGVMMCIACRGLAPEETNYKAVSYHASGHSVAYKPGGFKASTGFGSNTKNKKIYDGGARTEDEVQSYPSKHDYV
The assay can be described thus: flow cytometry, hybridoma supernatant on HEK293 cells stably transfected with human CLD18A1.
Excerpt: as §1, §2

Assay [3] deals with T1, human claudin 18A2 (CLD18A2). The experiment in a line: cell-based or functional assay.
Assay [4] shares this target. The experiment in a line: flow cytometry, scFv_Fc on HEK293 cells stably transfected with human CLD18A2. The method, then: Binding of anti-Claudin 18A2 scFv_Fc fusion antibody to HEK293 cells stably transfected with CLD18A2 was determined by flow cytometry. Experimental data was analyzed using GraphPad Prism and Guava easyCyte™ HT System instrument as described in Example 1 to obtain EC50 value.

B1: murine monoclonal antibody 3E12 (hybridoma supernatant) (antibody, V domains shown)
VH: QVQLQQSGPELVKPGALVKISCKASGYTFTSYDINWVKQRPGQGLEWIGWIYPGDGSTKYNEKFKGKATLTADKSSSTAYMQLSSLTSENSAVYFCARGGYRYDEAMDYWGQGTTVTVSS
VL: QIVLTQSPAIMSASPGEKVTMTCSASSSISYMHWYQQKPGTSPKRWIYDTSKLASGVPARFSGSGSGTSYSLTISSMEAEDAATYYCHQRSSYPYTFGGGTKLEIKR
notes: Mouse hybridoma antibody tested as supernatant
As for B1, the “fold difference of average fluorescence intensity, CLD18A2 against CLD18A1 cells” value (shortened to “fold difference”) in assay [1] was more than 5 times. In addition, the binding result in assay [2] is recorded as “no binding”.

B2: humanized antibody hu2B1-S54A (full antibody) (antibody, human IgG1, kappa, V domains shown)
VH: QVQLVQSGAEVKKPGASVKVSCKASGYTFTSYTMHWVRQAPGQGLEWMGYINPASGYTNYNQKFKDRVTMTRDTSTSTAYMELSSLRSEDTAVYYCARIYYGNSFAYWGQGTLVTVSS
VL: DIVMTQSPDSLAVSLGERATINCKSSQSLLNSGNQKNYLTWYQQKPGQPPKLLIYWASTRESGVPDRFSGSGSGTDFTLTISSLQAEDVAVYYCQNDYSYPLTFGGGTKVEIKR
Regarding B2, the “ADCC effect (LDH release), antibody 20 µg/ml, effector-to-target ratio 50:1” value in assay [3] was determined as 62.8%.

B3: humanized antibody hu8E5-2I (full antibody) (antibody, human IgG1, kappa, V domains shown)
VH: QVQLQESGPGLIKPSQTLSLTCTVSGGSISSGYNWHWIRQPPGKGLEWIGYIHYTGSTNYNPALRSRVTISVDTSKNQFSLKLSSVTAADTAIYYCARIYNGNSFPYWGQGTTVTVSS
VL: B2 VL with L30F, D97A, Y100F, L102Y, V110L
Regarding B3, in assay [3], the “ADCC effect (LDH release), antibody 20 µg/ml, effector-to-target ratio 50:1” value was determined as 72.9%.

B4: hu8E5 scFv fused to human IgG1 Fc portion (Fc fusion)
scFv: QVQLQESGPGLVKPSQTLSLTCTVSGGSISSGYNWHWIRQPPGKGLEWIGYIHYTGSTNYNPALRSRVTISVDTSKNQFSLKLSSVTAADTAVYYCARIYNGNSFPYWGQGTTVTVSSGGGGSGGGGSGGGGSDIVMTQSPDSLAVSLGERATINCKSSQSLFNSGNQKNYLTWYQQKPGQPPKLLIYWASTRESGVPDRFSGSGSGTDFTLTISSLQAEDVAVYYCQNAYSFPYTFGGGTKLEIKR
notes: also called hu8E5-S62A; not shown: human IgG1 Fc portion
For B4, the response in assay [4] was half-maximal at 107 nM (EC50). This counts as sub-micromolar.

B5: hu8E5-2I scFv fused to human IgG1 Fc portion (Fc fusion)
scFv: B4 scFv with V12I, V93I
notes: also called mutant hu8E5-2I; not shown: human IgG1 Fc portion
With B5, in assay [4], the EC50 amounted to 9.22 nM and the “fold increase of affinity against the parent antibody 8E5” value was 5 fold.

B6: 8E5 scFv_Fc fusion antibody (scFv of 8E5 fused to human IgG1 Fc portion) (Fc fusion)
scFv: DVQLQESGPDLVKPSQSLSLTCTVTGYSITSGYNWHWIRQFPGNKMEWMGYIHYTGSTNYNPSLRSRISITRDTSKNQFFLQLNSVTTDDTATYYCTRIYNGNSFPYWGQGTSVTVSSGGGGSGGGGSGGGGSDIVMTQSPSSLTVTPGEKVTMTCKSSQSLFNSGNQKNYLTWYQQRPGQPPKMLIYWASTRESGVPDRFTGSGSGTDFTLTISSVQAEDLAVFYCQNAYSFPYTFGGGTKLEIKR
notes: also called parent antibody 8E5; not shown: human IgG1 Fc portion
In assay [4], B6 displayed an EC50 of 49.2 nM.

B7: 2B1 scFv_Fc fusion antibody (scFv of 2B1 fused to human IgG1 Fc portion) (Fc fusion)
scFv: QVQLQQSGAELARPGASVKMSCKASGYTFTSYTMHWVKQRPGQGLEWIGYINPSSGYTNYNQKFKDKATLTADKSSSTAYMQLSSLTSEDSAVYYCARIYYGNSFAYWGQGTTVTVSSGGGGSGGGGSGGGGSDIVMTQSPSSLTVTAGEKVTMSCKSSQSLLNSGNQKNYLTWYQQKPGQPPKLLIYWASTRESGVPDRFTGSGSGTDFTLTISSVQAEDLAVYYCQNDYSYPLTFGAGTKLELKR
notes: also called murine anti-2B1 ScFv; not shown: human IgG1 Fc portion
Take B7: the EC50 in assay [4] was 3.56 nM.

B8: 2B1-S54A scFv_Fc fusion antibody (Fc fusion)
scFv: B7 scFv with S54A
notes: not shown: human IgG1 Fc portion
In assay [4], B8 displayed an EC50 of 3.85 nM. This EC50 and that of the molecule before are within 1.5-fold of each other.

B9: 2B1-N52D scFv_Fc fusion antibody (Fc fusion)
scFv: B7 scFv with N52D
notes: as for B8
For the molecule B9, the EC50 in assay [4] amounted to 6.11 nM.

B10: murine monoclonal antibody 2B1 (hybridoma supernatant) (antibody, V domains shown)
VH: QVQLQQSGAELARPGASVKMSCKASGYTFTSYTMHWVKQRPGQGLEWIGYINPSSGYTNYNQKFKDKATLTADKSSSTAYMQLSSLTSEDSAVYYCARIYYGNSFAYWGQGTTVTVSS
VL: DIVMTQSPSSLTVTAGEKVTMSCKSSQSLLNSGNQKNYLTWYQQKPGQPPKLLIYWASTRESGVPDRFTGSGSGTDFTLTISSVQAEDLAVYYCQNDYSYPLTFGAGTKLELKR
notes: as for B1
With B10, in assay [1], the “fold difference” value was more than 5 times. In addition, in assay [2], the binding result is “no binding”.

B11: murine monoclonal antibody 4A11 (hybridoma supernatant) (antibody, V domains shown)
VH: QIQLVQSGPELKKPGETVKISCKASGYTFTNYGMNWVKQAPGKGLKWMGWINTNTGEPTYAEEFKGRFAFSLETSASTAYLQINNLKNEDTATYFCARFSYGNSFAYWGQGTTVTVSS
VL: B10 VL with T12S, T14S, T40A, W56G, Y98H
notes: Mouse hybridoma antibody tested as supernatant; the latter is used
For the molecule B11, the “fold difference” value in assay [1] was more than 5 times. Further, the binding result in assay [2] was “no binding”.

B12: hu2B1-S54A scFv fused to human IgG1 Fc portion (Fc fusion)
scFv: QVQLVQSGAEVKKPGASVKVSCKASGYTFTSYTMHWVRQAPGQGLEWMGYINPASGYTNYNQKFKDRVTMTRDTSTSTAYMELSSLRSEDTAVYYCARIYYGNSFAYWGQGTLVTVSSGGGGSGGGGSGGGGSDIVMTQSPDSLAVSLGERATINCKSSQSLLNSGNQKNYLTWYQQKPGQPPKLLIYWASTRESGVPDRFSGSGSGTDFTLTISSLQAEDVAVYYCQNDYSYPLTFGGGTKVEIKR
notes: also called humanized hu2B1-S54A; not shown: human IgG1 Fc portion
In turn, B12 gave an EC50 in assay [4] of 18.6 nM.

B13: murine monoclonal antibody 8E5 (hybridoma supernatant) (antibody, V domains shown)
VH: DVQLQESGPDLVKPSQSLSLTCTVTGYSITSGYNWHWIRQFPGNKMEWMGYIHYTGSTNYNPSLRSRISITRDTSKNQFFLQLNSVTTDDTATYYCTRIYNGNSFPYWGQGTSVTVSS
VL: DIVMTQSPSSLTVTPGEKVTMTCKSSQSLFNSGNQKNYLTWYQQRPGQPPKMLIYWASTRESGVPDRFTGSGSGTDFTLTISSVQAEDLAVFYCQNAYSFPYTFGGGTKLEIKR
notes: as for B1
In the case of B13, the “fold difference” value in assay [1] was more than 5 times. In addition, the binding result in assay [2] is “no binding”.
